From patent US10501552B2, “Multivalent molecules comprising DR5-binding domains” (MacroGenics, Inc., priority 2015, dated 2019) come the findings set out here.

For data set [1], the system named is cell lines obtained from ATCC. The experiment in a line: MTS cell proliferation assay, panel of cell lines. Type of data set: cell-based. The note with it: for inhibition of cell growth, antibody alone: any of cell lines examined, not cross-linked; for cytotoxicity when cross-linked: cross-linked by goat anti-mouse IgG Fc antibody. As to the method:
Cell lines obtained from ATCC were cultured under standard tissue culture conditions. Each cell line was plated at ˜2×10^4 cells/well (in 96-well plates), and incubated overnight in F12/DMEM media supplemented with 10% FBS. […] Cell viability was determined using Promega CellTiter 96® AQeous Non-Radioactive Cell Proliferation Assay (Cat # G5430) essentially as described in the manufacturer's instructions to assay the amount of soluble formazan produced by cellular reduction of the MTS, which is a measure of the number of viable cells in the culture. Briefly, MTS/PMS regent was added to the wells and the absorbance at 490 nm (referenced at […]) was read in a Molecular Devices ThermoMax microplate reader.
Similar studies were performed over a range of anti-DR5 mAb concentrations from ˜10^−3 nM to ˜10^2 nM. The data for COLO205 cells is provided in FIG. 13, and are representative of cell lines sensitive to the antibodies of the invention.
The cytotoxicity of tetravalent DR5-Binding Molecules of the present invention was investigated. […] His-tagged TRAIL (R&D systems) was used as a positive control.
A general note: Tetrazolium assays rely on reduction of a dye to a coloured formazan, in cell work by metabolically active cells.

The next data set has as its system DR5-Fc fusion. The data set can be described thus: binding to immobilized DR5-Fc fusion in presence of TRAIL. Further details: species or system human. The note with it: for amount of immobilized biotinylated antibody: 2 μg/mL biotinylated, 1 μg/mL DR5-Fc fusion coat. The procedure: (§1) The amount of immobilized biotinylated antibody was assessed.
Another data set has as its target histidine tagged TRAIL (Homo sapiens, UniProt P50591). The experiment in a line: binding to TRAIL-His coat. The note with it: 2 μg/mL biotinylated; 1 μg/mL TRAIL-His coat. As to the method: as §1
For the next data set, the system named is COLO205. The data set can be described thus: […]-GLO cell viability assay with vorinostat. Type of data set: cell-based. Conditions: for synergy with vorinostat: 0.1 or 1 μM vorinostat; for Average % Ctrl: one day. The procedure:
For the first study COLO205 cells were plated at 2×10^4 cells/well (in 96-well plates), and incubated overnight in F12/DMEM media supplemented with 10% FBS. […] Cell viability was determined using Promega […]-GLO® Luminescent Cell Viability Assay (Cat # G5430) essentially as described in the manufacturer's instructions to assay the amount of ATP present, which is a measure of the number of viable cells in the culture. Briefly, an […]-GLO® Reagent was added to the wells and mixed for two minutes to induce lysis and the luminescence was read in a in PerkinElmer EnVision multilabel plate reader.
Cell viability of cells treated with the test articles is normalized to the corresponding negative control (medium±vorinostat) which is set to 100% and reported in Table 12 as % of control for each test agent alone or % control for each test agent in combination with vorinostat. % of control values less than 100% indicate a reduction in viability and reflect the cytotoxicity of the test article alone or in combination with vorinostat.
The Net Gain (Average % Growth Inhibition)=% Medium Ctrl (10% FBS)−% Medium Ctrl (1/10 μM vorinostat), and represents increased cytotoxicity of the test article in combination with vorinostat over cells treated with vorinostat alone.

Another data set relates to MCF7. The experiment in a line: […]-GLO cell viability assay with vorinostat. In kind it is cell-based. The note with it: MCF7 (Breast); 1 μg/ml + 10 μM Vorinostat.
The test system of a further data set is DU145. The data set can be described thus: […]-GLO cell viability assay with vorinostat. In kind it is cell-based, human. The note with it: DU145 (Prostate); 1 μg/ml + 10 μM Vorinostat.
Another data set concerns PC3. The experiment in a line: […]-GLO cell viability assay with vorinostat. Type of data set: cell-based. Conditions: PC3 (Prostate); 1 μg/ml + 1 μM Vorinostat.
[2] abbreviates: Vorinostat 0 μM, % Medium Ctrl (10% FBS), 10 ng/ml tetravalent molecule or 1 μg/ml DR5 mAb.
The mark [3] stands for this setting: Vorinostat 0.1 μM, normalized to medium + vorinostat.
Setting [4] is: Vorinostat 1 μM, normalized to medium + vorinostat.

DR5-Fc fusion, sequence (as listed by the source): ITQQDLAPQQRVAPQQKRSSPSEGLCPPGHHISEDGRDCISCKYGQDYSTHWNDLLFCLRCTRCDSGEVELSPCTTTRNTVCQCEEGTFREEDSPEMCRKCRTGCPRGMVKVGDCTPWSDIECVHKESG
histidine tagged TRAIL, sequence (P50591 114-281 limits assumed): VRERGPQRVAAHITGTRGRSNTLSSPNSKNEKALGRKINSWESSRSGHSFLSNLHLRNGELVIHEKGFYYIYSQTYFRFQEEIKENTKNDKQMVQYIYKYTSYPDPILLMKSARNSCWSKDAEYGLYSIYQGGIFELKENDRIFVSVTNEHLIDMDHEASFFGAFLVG

B1: DR5 mAb 1: anti-human DR5 monoclonal antibody; VL SEQ ID NO:3, VH SEQ ID NO:8 (antibody, listed as Mus musculus, V domains shown)
VH: EVKFLESGGGLVQPGGSLKLSCVASGFDFSRYWMSWVRQAPGKGLEWIGEINPDSNTINYTPSLKDKFIISRDNAKNTLYLQMTKVRSEDTALYYCTRRAYYGNPAWFAYWGQGTLVTVSS
VL: DIVLTQSPASLAVSLGQRATISCRASKSVSSSGYSYMHWYQQKPGQPPKVLIFLSSNLDSGVPARFSGSGSGTDFTLNIHPVEDGDAATYYCQHSRDLPPTFGGGTKLEIK
modifications: (1)..(121) Anti-DR5 Antibody mAb 1 Heavy Chain Variable Region; (1)..(111) Anti-DR5 Antibody mAb 1 Light Chain Variable Region
For the molecule B1, the “inhibition of cell growth, antibody alone” value in data set [1] is recorded as “neither DR5 mAb 1, nor DR5 mAb 2 alone is capable of inhibiting cell growth”. Also, in data set [1], the cytotoxicity when cross-linked result is “potent cytotoxicity”. Moreover, in the data set on DR5-Fc fusion, the “effect of histidine tagged TRAIL on amount bound to immobilized DR5-Fc” value is “not affected”. The “amount of immobilized biotinylated antibody” value was determined as 1.939 with DR5-Fc fusion (20 μg/mL TRAIL-His), 2.118 with DR5-Fc fusion (Buffer) and 0.007 with histidine tagged TRAIL. In addition, in the data set on COLO205, the synergy with vorinostat entry is reported as “did not synergize”. Besides, the “Average % Ctrl” value with COLO205 (setting [2]) stood at 96.8%; in the data set with COLO205 (setting [3]) it was 96.4%; in the data set with COLO205 (setting [4]) it was 93.3%. In addition, the “Net Gain (Average % Growth Inhibition)” value in the data set with COLO205 (Vorinostat 0.1 μM) is on record as 0%; with COLO205 (Vorinostat 1 μM), 3%; with MCF7, 4.55%; in the data set with DU145 it was 4.18%; in the data set on PC3 it was 1.59%.

B2: DR5 mAb 2: murine anti-human DR5 monoclonal antibody; VL SEQ ID NO:13, VH SEQ ID NO:18 (antibody, listed as Mus musculus, V domains shown)
VH: KVQLQQSGAELVKPGASVKLSCKASGYTFTEYILHWVKQKSGQGLEWIGWFYPGNNNIKYNEKFKDKATLTADKSSSTVYMELSRLTSEDSAVYFCARHEQGPGYFDYWGQGTTLTVSS
VL: DIVMTQSHKFMSTSVGDRVSITCKASQDVNTAVAWYQQKPGQSPKLLIYWASTRHTGVPDRFTGSGSGTDYTLTIKSVQAEDLTLYYCQQHYITPWTFGGGTKLEIK
modifications: (1)..(119) Anti-DR5 Antibody mAb 2 Heavy Chain Variable Region; (1)..(107) Anti-DR5 Antibody mAb 2 Light Chain Variable Region
As to B2, the “inhibition of cell growth, antibody alone” value in data set [1] is recorded as “neither DR5 mAb 1, nor DR5 mAb 2 alone is capable of inhibiting cell growth”. For the same molecule, the cytotoxicity when cross-linked entry in data set [1] is “potent cytotoxicity”. Also, in the data set with DR5-Fc fusion, the “effect of histidine tagged TRAIL on amount bound to immobilized DR5-Fc” value is “not affected”. The figures for the “amount of immobilized biotinylated antibody” value in the data set on DR5-Fc fusion (20 μg/mL TRAIL-His), in the data set on DR5-Fc fusion (Buffer) and with histidine tagged TRAIL were 2.052, 2.052 and 0.008, respectively. In addition, the synergy with vorinostat result in the data set with COLO205 is reported as “did not synergize”. For the same molecule, the “Average % Ctrl” value in the data set with COLO205 (setting [2]) came to 96.4%; in the data set with COLO205 (setting [3]) it was 96.5%; in the data set on COLO205 (setting [4]), 95.5%. In addition, the “Net Gain (Average % Growth Inhibition)” value with COLO205 (Vorinostat 0.1 μM) is 0%; in the data set on COLO205 (Vorinostat 1 μM) it was 1%; in the data set with MCF7, 5.00%; with DU145 it was 4.18%; in the data set with PC3 it was 1.59%.
